Protein stability index data for 52 sequences are collected here from the supplement of paper PMC10567573.

This data set in a line: protein stability index of a GFP-peptide fusion (GPS, HEK-293T) (PSI 1-6); higher = more stable. The settings on record: c terminus: a fixed tail appended.

± gives the standard deviation.
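Also: 24-mer peptide tiles fused after GFP, lentivirally expressed, FACS-sorted into six equal bins by GFP/DsRed ratio, decoded by Illumina sequencing, PSI is the read-weighted mean bin number.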

Turning to HGLQEGKDLFTQRQNSAPARMLSS [CDC25A], the protein stability index runs as follows: (treatment: DMSO) 4.4 ± 0.18; (treatment: MLN4924 1 uM, 8 h) 4.46 ± 0.15.

Consider MTNHQLSTTEWNDETLYQEFNGLK [CHIT1], for which the protein stability index turned out to be 4.37 ± 0.4 (treatment: DMSO) and 4.56 ± 0.19 (treatment: MLN4924 1 uM, 8 h).

For the sequence KINENVAAGMRFPLPEAIDPDVGV [PCDHGA10], the protein stability index by setting is: (treatment: DMSO) 3.79 ± 0.081; (treatment: MLN4924 1 uM, 8 h) 4.26 ± 0.44.

For the sequence MTKAQESLTLEDVAVDFTWEEWQF [ZNF649], the protein stability index was 3.36 ± 0.12 (treatment: DMSO) and 3.74 ± 0.44 (treatment: MLN4924 1 uM, 8 h).

As for FKDEWTQLDMFYRNWALKESFIKA [AASDHPPT], the protein stability index reads like this: (treatment: DMSO) 2.02 ± 0.16; (treatment: MLN4924 1 uM, 8 h) 2.22 ± 0.14.

With ESKDQGKTLALARTMDIPRSVQNF [ALDH8A1], the protein stability index (treatment: DMSO) worked out at 4.01 ± 0.15 and the protein stability index (treatment: MLN4924 1 uM, 8 h) turned out to be 4.18 ± 0.23.

For RVLHDFGLDGYRGYSLADWVCLAY [SPACA3], the protein stability index is 2.2 ± 0.34 (treatment: DMSO) and 2.21 ± 0.18 (treatment: MLN4924 1 uM, 8 h).

Sequence GDLGDPFHLGLEDILMEEEEGVVG [TFE3] returned a protein stability index (treatment: DMSO) of 5.33 ± 0.34 and a protein stability index (treatment: MLN4924 1 uM, 8 h) of 5.3 ± 0.2.

In the case of VSDDLSSEEDGEARTQMILLRRSV [PHTF1], the protein stability index amounted to 4.8 ± 0.17 (treatment: DMSO) and 5.08 ± 0.15 (treatment: MLN4924 1 uM, 8 h).

In the case of KKKYMPYNHQHKYFFLIGPPALLP [FADS1], the protein stability index runs as follows: (treatment: DMSO) 3.14 ± 0.67; (treatment: MLN4924 1 uM, 8 h) 1.76 ± 0.053.

For SLARNPAPGVLTNKRKTYTESYIA [ZC2HC1A], the protein stability index (treatment: DMSO) came to 3.22 ± 0.21 and the protein stability index (treatment: MLN4924 1 uM, 8 h) turned out to be 3.23 ± 0.41.

ADFKGVLQRPSYKFFFKSMDDDFG [DVL3]: the protein stability index runs as follows: (treatment: DMSO) 2.5 ± 0.28; (treatment: MLN4924 1 uM, 8 h) 2.67 ± 0.11.

Turning to LATTEKKTEQQRRREKAVHRLRVQ [NOP53], the protein stability index by setting is: (treatment: DMSO) 4.34 ± 0.19; (treatment: MLN4924 1 uM, 8 h) 4.37 ± 0.17.

HYAVNSQFTMGGPAISMASPMSIP [CARM1] yielded a protein stability index (treatment: DMSO) of 2.63 ± 0.21 and a protein stability index (treatment: MLN4924 1 uM, 8 h) of 2.78 ± 0.24.

As to WLHALHLRQKGNRNTHKDLLRFAQ [FEM1B], the protein stability index came to 2.44 ± 0.52 (treatment: DMSO) and 2.35 ± 0.15 (treatment: MLN4924 1 uM, 8 h).

Regarding TQHWPIRLDGQQEPQPFVTSDVYS [MYORG], the protein stability index amounted to 3.56 ± 0.27 (treatment: DMSO) and 3.46 ± 0.22 (treatment: MLN4924 1 uM, 8 h).

For KMIGFPSSAGSVSPRSTSVTTTSS [KRT13], the protein stability index turned out to be 4.4 ± 0.067 (treatment: DMSO) and 4.16 ± 0.096 (treatment: MLN4924 1 uM, 8 h).

Consider MGSGTSTQHHFAFQNAERAFKAAA [PPEF2], for which the protein stability index reads like this: (treatment: DMSO) 3.46 ± 0.43; (treatment: MLN4924 1 uM, 8 h) 2.98 ± 0.25.

As to NSHLTSVPHWINSNTLGFGTEQAP [ETS2], the protein stability index came out at 3.42 ± 0.15 (treatment: DMSO) and 3.45 ± 0.21 (treatment: MLN4924 1 uM, 8 h).

In turn, LSVLQIAQQDLAPDPDAWLRALGE [FANCE] gave a protein stability index (treatment: DMSO) of 2.81 ± 0.39 and a protein stability index (treatment: MLN4924 1 uM, 8 h) of 2.75 ± 0.3.

On to VSMETYHVTLTLPPTQLEVNLEEI [C2CD2L], for which the protein stability index runs as follows: (treatment: DMSO) 2.34 ± 0.35; (treatment: MLN4924 1 uM, 8 h) 2.27 ± 0.31.

As for GSALTFREEQCAAYNHRTDLFKSF [ADAMTS4], the protein stability index is, setting by setting: (treatment: DMSO) 2.97 ± 0.17; (treatment: MLN4924 1 uM, 8 h) 2.88 ± 0.22.

Consider RKLRKTVNGDGSRENGNNSSDKVR [PHTF1], for which the protein stability index (treatment: DMSO) was determined as 4.96 ± 0.088 and the protein stability index (treatment: MLN4924 1 uM, 8 h) is 4.99 ± 0.18.

Consider LLVVGGFGSQQSPIDVVEKYDPKT [KLHL12], for which the protein stability index is, setting by setting: (treatment: DMSO) 3 ± 0.55; (treatment: MLN4924 1 uM, 8 h) 3.61 ± 0.33.

On to CIHDHHCGSQLSSTKGSRSNLSTR [NETO1], for which the protein stability index (treatment: DMSO) amounted to 3.04 ± 0.52 and the protein stability index (treatment: MLN4924 1 uM, 8 h) is 3.33 ± 0.37.

Take FMAYEQIKRLVGSDQETLRIHERL [SLC25A25]: the protein stability index was 3.08 ± 0.26 (treatment: DMSO) and 2.97 ± 0.42 (treatment: MLN4924 1 uM, 8 h).

On to MGQWQLEVGDPAPLGAGNLGPELI [DPCD], for which the protein stability index was found to be 3.42 ± 0.23 (treatment: DMSO) and 3.48 ± 0.2 (treatment: MLN4924 1 uM, 8 h).

GHLCAAEVVKIRDSFSNQNTETKD [DLC1]: the protein stability index was found to be 4.18 ± 0.063 (treatment: DMSO) and 4.14 ± 0.22 (treatment: MLN4924 1 uM, 8 h).

For the sequence LEHGADPTVKDLIGGFTALHYAAM [ASB7], the protein stability index (treatment: DMSO) is 2.5 ± 0.45 and the protein stability index (treatment: MLN4924 1 uM, 8 h) came to 2.54 ± 0.38.

Consider VCSQCGKVLEEGGFFEEKGAIFCP [PDLIM7], for which the protein stability index runs as follows: (treatment: DMSO) 4.88 ± 0.22; (treatment: MLN4924 1 uM, 8 h) 4.81 ± 0.38.

Sequence EEEEAAMYEEEMEREEITTKKRKL [FAM50A] returned a protein stability index (treatment: DMSO) of 5.66 ± 0.32 and a protein stability index (treatment: MLN4924 1 uM, 8 h) of 5.38 ± 0.34.

Regarding KLKLTNNHLDPFGHIILNSMHKYQ [TBX5], the protein stability index came out at 2.26 ± 0.37 (treatment: DMSO) and 2.34 ± 0.25 (treatment: MLN4924 1 uM, 8 h).

Turning to FTVGSVLGQILVSVAGWSLFSLNV [SLC19A2], the protein stability index by setting is: (treatment: DMSO) 3.28 ± 0.33; (treatment: MLN4924 1 uM, 8 h) 3.1 ± 0.63.

EEKEAWYREESDSLGQDLRRLRQE [DAPK3] displayed a protein stability index (treatment: DMSO) of 5.28 ± 0.31 and a protein stability index (treatment: MLN4924 1 uM, 8 h) of 5.35 ± 0.17.

In turn, DDATCRLYDLRADREVAIYSKESI [GNB5] gave a protein stability index (treatment: DMSO) of 3.51 ± 0.24 and a protein stability index (treatment: MLN4924 1 uM, 8 h) of 3.4 ± 0.17.

On to VPKVGQRFNRIGLPPKVGSFQLFV [PI4K2A], for which the protein stability index worked out at 2.31 ± 0.78 (treatment: DMSO) and 2.34 ± 0.44 (treatment: MLN4924 1 uM, 8 h).

With ITEALRPAGVGVVVEATHMCMVMR [GCH1], the protein stability index (treatment: DMSO) came to 2.11 ± 0.38 and the protein stability index (treatment: MLN4924 1 uM, 8 h) is 2.29 ± 0.33.

For the sequence LACRLTPDMETKLLFMTSRVRFGQ [INTS3], the protein stability index (treatment: DMSO) is 2.2 ± 0.16 and the protein stability index (treatment: MLN4924 1 uM, 8 h) is 2.23 ± 0.22.

The sequence ASAQKFSSRSTVPTPAKRRSSALW [NET1] returned a protein stability index (treatment: DMSO) of 3.41 ± 0.039 and a protein stability index (treatment: MLN4924 1 uM, 8 h) of 3.5 ± 0.33.

Regarding SVNISLDNLLPGMQPSKPQQPSLN [CLINT1], the protein stability index reads like this: (treatment: DMSO) 3.4 ± 0.23; (treatment: MLN4924 1 uM, 8 h) 3.51 ± 0.16.

Take HARLRLSADRLTVRCGLLGSLGPV [TRIM14]: the protein stability index was 2.2 ± 0.65 (treatment: DMSO) and 2.31 ± 0.3 (treatment: MLN4924 1 uM, 8 h).

Regarding SKLRNYRKDLAKLHREVRSTPLTA [VTI1B], the protein stability index (treatment: DMSO) came out at 3 ± 0.25 and the protein stability index (treatment: MLN4924 1 uM, 8 h) amounted to 3.26 ± 0.26.

Sequence VISCLEQGEEPWVQVSPEFKDSAG [ZNF75A] yielded a protein stability index (treatment: DMSO) of 4.59 ± 0.11 and a protein stability index (treatment: MLN4924 1 uM, 8 h) of 4.68 ± 0.13.

HKIKHKHILAKNYFSQVPVLASFI [IQUB]: the protein stability index amounted to 2.34 ± 0.37 (treatment: DMSO) and 2.32 ± 0.55 (treatment: MLN4924 1 uM, 8 h).

Consider YPEEADGTLDCISMALTCTFNRWG [RBBP5], for which the protein stability index was 2.19 ± 0.23 (treatment: DMSO) and 2.11 ± 0.28 (treatment: MLN4924 1 uM, 8 h).

Take QGKYECVATNSAGTRYSAPANLYV [PTPRD]: the protein stability index was found to be 2.9 ± 0.22 (treatment: DMSO) and 2.89 ± 0.64 (treatment: MLN4924 1 uM, 8 h).

In the case of PFVCPECGQPCSQKSGLIRHQKIH [ZNF649], the protein stability index reads like this: (treatment: DMSO) 4.65 ± 0.3; (treatment: MLN4924 1 uM, 8 h) 4.78 ± 0.3.

Turning to LPPPPPPSRGGNQLPRPPIVGGNK [WAS], the protein stability index reads like this: (treatment: DMSO) 5.11 ± 0.6; (treatment: MLN4924 1 uM, 8 h) 5.01 ± 0.33.

Consider NFVRERTLDKRWRVRKEAMMGLAQ [PDS5B], for which the protein stability index reads like this: (treatment: DMSO) 2.8 ± 0.24; (treatment: MLN4924 1 uM, 8 h) 2.83 ± 0.39.

Regarding RQFEFYLEEMILPLMVASAQSGER [BTBD10], the protein stability index by setting is: (treatment: DMSO) 2.58 ± 0.64; (treatment: MLN4924 1 uM, 8 h) 3.2 ± 0.43.

For RAINLLFDIARIERCNQLLRALKL [ZER1], the protein stability index runs as follows: (treatment: DMSO) 1.82 ± 0.16; (treatment: MLN4924 1 uM, 8 h) 2.08 ± 0.32.

With EDEKQRLQNEVRQLTEKLARVNEN [SSNA1], the protein stability index was 4.99 ± 0.35 (treatment: DMSO) and 5.17 ± 0.24 (treatment: MLN4924 1 uM, 8 h).
